From patent publication US20030152576A1 (published 2003)

T1: human CD14 with amino acids 39, 40, 41, 43 and 44 substituted with alanine (mut6) (human, UniProt P08571 20-345)
T1 construct: whole, on cells; The positions count on the mature protein (add 19 for the precursor entry); also called CD14mut6; CHO-Mut6
T1 sequence (looked up): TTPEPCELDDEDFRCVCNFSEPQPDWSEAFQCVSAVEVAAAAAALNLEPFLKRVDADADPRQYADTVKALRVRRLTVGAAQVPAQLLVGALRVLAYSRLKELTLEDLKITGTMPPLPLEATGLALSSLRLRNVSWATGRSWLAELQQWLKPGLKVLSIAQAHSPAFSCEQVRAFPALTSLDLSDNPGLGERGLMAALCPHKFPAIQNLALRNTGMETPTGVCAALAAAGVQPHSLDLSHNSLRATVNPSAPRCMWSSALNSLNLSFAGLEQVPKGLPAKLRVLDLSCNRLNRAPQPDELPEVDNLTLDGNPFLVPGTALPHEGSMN

B1: recombinant soluble CD14 (receptor)
chain: TTPEPCELDDEDFRCVCNFSEPQPDWSEAFQCVSAVEVEIHAGGLNLEPFLKRVDADADPRQYADTVKALRVRRLTVGAAQVPAQLLVGALRVLAYSRLKELTLEDLKITGTMPPLPLEATGLALSSLRLRNVSWATGRSWLAELQQWLKPGLKVLSIAQAHSPAFSCEQVRAFPALTSLDLSDNPGLGERGLMAALCPHKFPAIQNLALRNTGMETPTGVCAALAAAGVQPHSLDLSHNSLRATVNPSAPRCMWSSALNSLNLSFAGLEQVPKGLPAKLRVLDLSCNRLNRAPQPDELPEVDNLTLDGNPFLVPGTALPHEGSMNSGVVPACARSTLSVGVSGTLVL
notes: also called sCD14; recombinant sCD14
B2: biotinylated recombinant HBsAg particles, which only contain S protein (b-rHBsAg) (other)
chain: MENITSGFLGPLLVLQAGFFLLTRILTIPQSLDSWWTSLNFLGGSPVCLGQNSQSPTSNHSPTSCPPICPGYRWMCLRRFIIFLFILLLCLIFLLVLLDYQGMLPVCPLIPGSTTTSTGPCKTCTTPAQGNSMFPSCCCTKPTDGNCTCIPIPSSWAFAKYLWEWASVRFSWLSLLVPFVQWFVGLSPTVWLSAIWMMWYWGPSLYSIVSPFIPLLPIFFCLWVYI
modifications: biotinylated on lysine residues (the three lysine residues which can become biotinylated all lie in the major antigenic region of the S protein; positions 122 and 141 are named)
notes: domain: S protein; Multimeric virus-like particle with lipid; also called biotinylated rHBsAg

Tests used:
[1] = target: mouse CD14 (mouse) (UniProt P10810); assay: flow cytometry, mCD14-CHO cells, FITC-labelled mAb
[2] = target: human CD14 (human) (UniProt P08571); assay: flow cytometry, hCD14-CHO cells, FITC-labelled mAb
[3] = target: B2; assay: flow cytometry competition; b-rHBsAg pre-incubated with recombinant sCD14 in 2% HS-HBSS, then binding to monocytes of PBMC
[4] = target: T1, human CD14 with amino acids 39, 40, 41, …; assay: flow cytometry on CHO cells transfected with mut6, 2% HS-HBSS, Strep-PE

mouse CD14 (mouse), sequence (P10810 16-336): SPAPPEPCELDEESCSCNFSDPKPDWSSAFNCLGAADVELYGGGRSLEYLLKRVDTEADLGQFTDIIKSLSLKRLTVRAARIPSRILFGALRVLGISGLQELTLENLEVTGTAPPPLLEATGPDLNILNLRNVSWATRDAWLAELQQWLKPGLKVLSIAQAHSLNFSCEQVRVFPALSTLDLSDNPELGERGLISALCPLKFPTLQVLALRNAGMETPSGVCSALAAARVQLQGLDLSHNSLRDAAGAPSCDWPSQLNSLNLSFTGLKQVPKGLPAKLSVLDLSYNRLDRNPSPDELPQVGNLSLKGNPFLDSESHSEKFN

Molecule | Median Fluorescence [1] | Median Fluorescence [2] | IC50 [3] | binding result [4]
Rat anti-mouse CD14-FITC (clone rmC5-3, IgG1) (antibody) | 24 | 0 |  | 
Mouse anti-human CD14 (clone My4) (antibody) | 0.12 | 291 |  | 
Mouse anti-human CD14 (clone M(P9)) (antibody) | 0 | 502 |  | 
B1 |  |  | > 2.5 µg/mL | 
B2 |  |  |  | no binding
